Measured values: patent US20150274826A1 (published 2015)

Key:
rat CD47 = molecular target: T1, rat CD47 (rat, UniProt P97829 19-303); assay: FACS binding; rat RBCs
T1 chain: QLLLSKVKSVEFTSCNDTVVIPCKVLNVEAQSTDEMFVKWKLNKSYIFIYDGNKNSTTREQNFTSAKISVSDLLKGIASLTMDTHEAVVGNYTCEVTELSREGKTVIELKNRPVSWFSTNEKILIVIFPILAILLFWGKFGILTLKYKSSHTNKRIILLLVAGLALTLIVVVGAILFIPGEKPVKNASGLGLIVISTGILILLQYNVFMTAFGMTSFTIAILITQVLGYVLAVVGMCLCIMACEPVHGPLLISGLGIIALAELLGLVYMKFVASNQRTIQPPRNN

human CD47 = human CD47 (human, UniProt Q08722 19-323); assay: FACS binding; human RBCs
mouse CD47 = molecular target: T2, mouse CD47 (mouse, UniProt Q61735 19-303); assay: FACS binding; mouse RBCs
T2 chain: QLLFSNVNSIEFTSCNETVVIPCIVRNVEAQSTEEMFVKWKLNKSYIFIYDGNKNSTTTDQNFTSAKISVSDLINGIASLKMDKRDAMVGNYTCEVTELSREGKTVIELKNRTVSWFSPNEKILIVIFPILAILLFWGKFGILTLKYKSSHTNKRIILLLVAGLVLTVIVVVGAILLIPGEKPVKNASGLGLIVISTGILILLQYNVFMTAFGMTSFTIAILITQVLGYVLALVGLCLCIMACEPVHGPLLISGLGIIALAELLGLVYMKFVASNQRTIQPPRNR

pig CD47 = molecular target: T3, pig CD47 (pig, UniProt Q9GKE8 19-303); assay: FACS binding; porcine RBCs
T3 chain: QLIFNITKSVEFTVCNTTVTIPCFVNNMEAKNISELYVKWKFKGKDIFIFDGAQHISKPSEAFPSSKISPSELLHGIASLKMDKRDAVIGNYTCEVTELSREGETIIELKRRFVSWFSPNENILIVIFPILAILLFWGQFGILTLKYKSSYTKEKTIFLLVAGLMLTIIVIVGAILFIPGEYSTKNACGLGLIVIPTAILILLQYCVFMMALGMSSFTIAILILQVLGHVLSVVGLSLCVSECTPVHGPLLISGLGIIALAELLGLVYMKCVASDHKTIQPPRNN

Chain of human CD47 (Q08722 19-323): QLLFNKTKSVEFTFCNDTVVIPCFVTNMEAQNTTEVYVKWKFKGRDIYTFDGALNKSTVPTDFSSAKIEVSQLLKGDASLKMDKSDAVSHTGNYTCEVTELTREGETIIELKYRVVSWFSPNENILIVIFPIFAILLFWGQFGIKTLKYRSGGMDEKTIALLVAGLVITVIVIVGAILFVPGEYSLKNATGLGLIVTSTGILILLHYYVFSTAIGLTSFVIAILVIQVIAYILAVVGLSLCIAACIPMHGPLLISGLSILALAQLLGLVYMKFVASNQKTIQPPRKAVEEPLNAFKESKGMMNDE

B1: Clone 1.1 (hum01 IgG1 N297Q) (antibody)
heavy: QVQLQESGPGLVKPSQTLSLTCTVSGYTFTNYYVFWVRQARGQRLEWIGDINPVNGDTNFNEKFKNRVTISADKSISTAYLQWSSLKASDTAMYYCARGGYTMDYWGQGTLVTVSSASTKGPSVFPLAPSSKSTSGGTAALGCLVKDYFPEPVTVSWNSGALTSGVHTFPAVLQSSGLYSLSSVVTVPSSSLGTQTYICNVNHKPSNTKVDKKVEPKSCDKTHTCPPCPAPELLGGPSVFLFPPKPKDTLMISRTPEVTCVVVDVSHEDPEVKFNWYVDGVEVHNAKTKPREEQYQSTYRVVSVLTVLHQDWLNGKEYKCKVSNKALPAPIEKTISKAKGQPREPQVYTLPPSR
light: DIVMTQTPLSLPVTPGEPASISCRSSQSLVHSNGNTYLHWYQQKPGKAPKLLIYKVSYRFSGVPDRFSGSGSGTDFTLKISRVEAEDVGVYYCSQNTHVPRTFGQGTKVEIKRTVAAPSVFIFPPSDEQLKSGTASVVCLLNNFYPREAKVQWKVDNALQSGNSQESVTEQDSKDSTYSLSSTLTLSKADYEKHKVYACEVTHQGLSSPVTKSFNRGEC
B1 was tested, and the EC50 (rat CD47) was 0.258 µg/mL, the EC50 (human CD47) was 0.216 µg/mL and the EC50 (mouse CD47) was 0.265 µg/mL. It also gave an EC50 (pig CD47) of 0.0309 µg/mL.

B2: Clone 1 (pVxK7b-037-hum01-LC / pVxK7b-037-hum01-HC) (antibody)
heavy: not shown
light: DIVMTQTPLSLPVTPGEPASISCRSSQSLVHSNGNTYLHWYQQKPGKAPKLLIYKVSYRFSGVPDRFSGSGSGTDFTLKISRVEAEDVGVYYCSQNTHVPRTFGQGTKVEIKRTVAAPSVFIFPPSDEQLKSGTASVVCLLNNFYPREAKVQWKVDNALQSGNSQESVTEQDSKDSTYSLSSTLTLSKADYEKHKVYACEVTHQGLSSPVTKSFNRGEC
B2 showed an EC50 (rat CD47) of 0.0479 µg/mL, an EC50 (human CD47) of 0.184 µg/mL and an EC50 (mouse CD47) of 0.0657 µg/mL. The EC50 (pig CD47) was 0.014 µg/mL.

B3: Clone 13 (pVxK7b-037-hum13-LC / pVxK7b-037-hum13-HC) (antibody)
heavy: not shown
light: DIVMTQTPLSLPVTPGEPASISCRSSQSLVHSNGNTYLHWYQQKPGKAPKLLIYKVSYRFSGVPDRFSGSGSGTDFTLKISRVEAEDVGVYYCSQNTHVPRTFGQGTKVEIKRTVAAPSVFIFPPSDEQLKSGTASVVCLLNNFYPREAKVQWKVDNALQSGNSQESVTEQDSKDSTYSLSSTLTLSKADYEKHKVYACEVTHQGLSSPVTKSFNRGEC
With B3 the EC50 (rat CD47) was 0.0461 µg/mL, the EC50 (human CD47) was 0.12 µg/mL and the EC50 (mouse CD47) was 0.0418 µg/mL. For the same binder, the EC50 (pig CD47) was 0.0152 µg/mL.

B4: Clone 13.1 (hum13 IgG1 N297Q) (antibody)
heavy: EVQLVQSGAEVKKPGESLRISCKGSGYTFTNYYVFWIRQSPSRGLEWLGDINPVNGDTNFNEKFKNRVTITADKSTSTAYMELSSLRSEDTAVYYCARGGYTMDYWGQGTLVTVSSASTKGPSVFPLAPSSKSTSGGTAALGCLVKDYFPEPVTVSWNSGALTSGVHTFPAVLQSSGLYSLSSVVTVPSSSLGTQTYICNVNHKPSNTKVDKKVEPKSCDKTHTCPPCPAPELLGGPSVFLFPPKPKDTLMISRTPEVTCVVVDVSHEDPEVKFNWYVDGVEVHNAKTKPREEQYQSTYRVVSVLTVLHQDWLNGKEYKCKVSNKALPAPIEKTISKAKGQPREPQVYTLPPSR
light: DIVMTQTPLSLPVTPGEPASISCRSSQSLVHSNGNTYLHWYQQKPGKAPKLLIYKVSYRFSGVPDRFSGSGSGTDFTLKISRVEAEDVGVYYCSQNTHVPRTFGQGTKVEIKRTVAAPSVFIFPPSDEQLKSGTASVVCLLNNFYPREAKVQWKVDNALQSGNSQESVTEQDSKDSTYSLSSTLTLSKADYEKHKVYACEVTHQGLSSPVTKSFNRGEC
In the case of B4, the EC50 (rat CD47) is reported as 0.0835 µg/mL, the EC50 (human CD47) is reported as 0.163 µg/mL and the EC50 (mouse CD47) is reported as 0.0673 µg/mL. It also gave an EC50 (pig CD47) of 0.031 µg/mL.
